According to US20180362616A1 (NATIONAL INSTITUTE FOR BIOTECHNOLOGY IN THE NEGEV, published 2018):
Changes are numbered by the printed parent chain. Names and notes keep the numbering of the source.

Experiments:
human cationic trypsin [1] = target: T1, human cationic trypsin (human, UniProt P07477 24-247); test: inhibition of cationic trypsin cleavage of Z-GPR-pNA; slow tight-binding fit
T1 construct: mature

human Kallikrein-6 [2] = target: T2, human Kallikrein-6 (human, UniProt Q92876 22-244); test: SPR, APPI held on nickel chip by its His tag, hK6 as analyte, 25° C.
human Kallikrein-6 [3] = target: T2, human Kallikrein-6; test: inhibition of hK6 catalytic activity, slow tight inhibition mechanism
human Kallikrein-6 [4] = target: T2, human Kallikrein-6; test: inhibition of kallikrein-6 cleavage of BOC-Phe-Ser-Arg-AMC; slow tight-binding fit
human anionic trypsin [5] = target: T3, human anionic trypsin (human, UniProt P07478 24-247); test: inhibition of anionic trypsin cleavage of Z-GPR-pNA; slow tight-binding fit
T3 construct: mature

[6] = target: T4, human mesotrypsin (catalytically active) (human, UniProt P35030 81-304); test: inhibition of mesotrypsin cleavage of Z-GPR-pNA; competitive inhibition fit (Equation 1)
T4 construct: mature; In the invasion assays it is the endogenous enzyme of PC3-M cells; also called active mesotrypsin; PRSS3 gene product
T4 sequence (looked up): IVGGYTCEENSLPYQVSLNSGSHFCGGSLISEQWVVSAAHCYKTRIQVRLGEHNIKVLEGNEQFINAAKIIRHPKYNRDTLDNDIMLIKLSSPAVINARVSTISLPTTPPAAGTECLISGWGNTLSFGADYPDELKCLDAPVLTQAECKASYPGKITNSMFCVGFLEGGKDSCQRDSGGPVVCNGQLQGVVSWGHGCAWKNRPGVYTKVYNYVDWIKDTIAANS

Factor XIa [7] = target: T5, Factor XIa (human, UniProt P03951 19-625); test: inhibition of FXIa cleavage of S-2366
T5 construct: also called FXIa

[8] = target: T4, human mesotrypsin (catalytically active); test: inhibition of mesotrypsin cleavage of Z-GPR-pNA
[9] = target: T4, human mesotrypsin (catalytically active); test: cell-based or functional assay
[10] = target: T4, human mesotrypsin (catalytically active); test: inhibition constant of soluble variant; target taken as mesotrypsin
[11] = target: T4, human mesotrypsin (catalytically active); test: Ki of soluble variant against APPI-WT
human Kallikrein-6 [12] = target: T2, human Kallikrein-6; test: Ki of APPI-WT over Ki of APPI-M17G/I18F/F34V, kallikrein-6
[13] = target: T4, human mesotrypsin (catalytically active); test: Ki of APPI-WT over Ki of APPI-M17G/I18F/F34V, mesotrypsin
human cationic trypsin [14] = target: T1, human cationic trypsin; test: by the numbers: Ki (fold) for mesotrypsin over Ki (fold) for cationic trypsin
[15] = target: T4, human mesotrypsin (catalytically active); test: by the numbers: Ki (fold) for mesotrypsin over Ki (fold) for this protease
human anionic trypsin [16] = target: T3, human anionic trypsin; test: by the numbers: Ki (fold) for mesotrypsin over Ki (fold) for anionic trypsin
human cationic trypsin [17] = target: T1, human cationic trypsin; test: Ki of APPI-WT over Ki of APPI-M17G/I18F/F34V, cationic trypsin
human anionic trypsin [18] = target: T3, human anionic trypsin; test: Ki of APPI-WT over Ki of APPI-M17G/I18F/F34V, anionic trypsin
[19] = target: T4, human mesotrypsin (catalytically active); test: Ki against that of APPI-WT, mesotrypsin inhibition
human Kallikrein-6 [20] = target: T2, human Kallikrein-6; test: by the numbers: Ki (fold) for mesotrypsin over Ki (fold) for kallikrein-6
Factor XIa [21] = target: T5, Factor XIa; test: by the numbers: Ki (fold) for mesotrypsin over Ki (fold) for FXIa
[22] = target: T4, human mesotrypsin (catalytically active); test: inhibition of mesotrypsin cleavage of Z-GPR-pNA; slow tight-binding fit (Equation 2)
[23] = target: T4, human mesotrypsin (catalytically active); test: cell-based or functional assay; remark: listed apart in the source
[24] = target: T4, human mesotrypsin (catalytically active); test: inhibition of mesotrypsin cleavage of Z-GPR-pNA; slow tight-binding fit
Factor XIa [25] = target: T5, Factor XIa; test: Ki of APPI-WT over Ki of APPI-M17G/I18F/F34V, FXIa
[26] = target: T4, human mesotrypsin (catalytically active); test: free energy change of association calculated from Ki of mesotrypsin inhibition (Equation 4), triple mutant cycle
[27] = target: T4, human mesotrypsin (catalytically active); test: Ki against that of APPI-WT, mesotrypsin inhibition (Equation 1)
[28] = target: T4, human mesotrypsin (catalytically active); test: Ki against that of APPI-WT, mesotrypsin inhibition (Equation 2)
[29] = target: T4, human mesotrypsin (catalytically active); test: inhibition of mesotrypsin activity
human Kallikrein-6 [30] = target: T2, human Kallikrein-6; test: SPR, APPI held on nickel chip by its His tag, hK6 as analyte

B1: APPI-WT (SEQ ID NO: 25), soluble, expressed in Pichia pastoris (other)
chain: EVCSEQAETGPCRAMISRWYFDVTEGKCAPFFYGGCGGNRNNFDTEEYCMAVCGSAI
notes: Secreted from P. pastoris GS115, purified by nickel IMAC and gel filtration; also called WT APPI; not shown: N-terminal FLAG tag with the SnaBI/EcoRI-coded residues, and the C-terminal AvrII-coded residues plus His6
Ki (human cationic trypsin [1]): 0.00627 nM
Kd (human Kallikrein-6 [2]): 7.91 nM
Ki (human Kallikrein-6 [3]): 2.24 nM
Ki (human Kallikrein-6 [4]): 2.23 nM
Ki (human anionic trypsin [5]): 0.00174 nM
Ki [6]: 131 nM
Ki (Factor XIa [7]): 0.41 nM
Ki [8]: 131 nM

B2: APPIM17C/I18F/F34C (SEQ ID NO: 12), soluble (designed binder)
chain: B1 chain with M15C, I16F, F32C
notes: not shown: AvrII site residues and C-terminal HIS6 tag
Kcat (1/s), proteolytic resistance [9]: 0.00038 s⁻¹
Ki [10]: 0.0524 nM
fold improvement in affinity relative to APPI-WT [11]: ~2000 fold

B3: APPIT11V/M17G/I18F/F34V (SEQ ID NO: 9), soluble (designed binder)
chain: B1 chain with T9V, M15G, I16F, F32V
notes: as for B2
Kcat (1/s), proteolytic resistance [9]: 0.000347 s⁻¹
Ki [10]: 0.0499 nM
fold improvement in affinity relative to APPI-WT [11]: ~2000 fold

B4: APPI-M17G/I18F/F34V (SEQ ID NO: 8), soluble (designed binder)
chain: B1 chain with M15G, I16F, F32V
notes: also called APPI 3M; APPI^3M; not shown: AvrII site residues and C-terminal HIS6 tag
Ki (human cationic trypsin [1]): 0.00496 nM
Ki (fold) (human Kallikrein-6 [12]): 2.04 fold
Ki (fold) [13]: 1460 fold
specificity ratio (formula not given) (human cationic trypsin [14]): 1120
specificity ratio (formula not given) [15]: 1
Ki (human Kallikrein-6 [3]): 1.1 nM
Ki (human Kallikrein-6 [4]): 1.09 nM
specificity ratio (formula not given) (human anionic trypsin [16]): 1240
Ki (fold) (human cationic trypsin [17]): 1.3 fold
Ki (human anionic trypsin [5]): 0.00147 nM
Ki (fold) (human anionic trypsin [18]): 1.18 fold
Ki (fold) [19]: 1460 fold
specificity ratio (formula not given) (human Kallikrein-6 [20]): 715
specificity ratio (formula not given) (Factor XIa [21]): 350000
Ki [22]: 0.0898 nM
Ki (Factor XIa [7]): 98.4 nM
Kcat (s^-1) of hydrolysis of APPI by mesotrypsin (HPLC time course) [23]: 0.000429 s⁻¹
Ki [24]: 0.0898 nM
Ki (fold) (Factor XIa [25]): 0.00416 fold

B5: APPI-M17G/I18F (SEQ ID NO: 22), soluble (designed binder)
chain: B1 chain with M15G, I16F
notes: as for B2
ΔΔGa, edge I18F to M17G/I18F [26]: -1.22 kcal/mol
ΔΔGa, edge M17G to M17G/I18F [26]: -1.22 kcal/mol
Ki (fold) [19]: 290 fold
Ki [22]: 0.453 nM
Kcat (s^-1) of hydrolysis of APPI by mesotrypsin (HPLC time course) [23]: 0.00291 s⁻¹

B6: APPI-M17G/F34V (SEQ ID NO: 21), soluble (designed binder)
chain: B1 chain with M15G, F32V
notes: as for B2
ΔΔGa, edge F34V to M17G/F34V [26]: -2.2 kcal/mol
ΔΔGa, edge M17G to M17G/F34V [26]: -0.53 kcal/mol
Ki (fold) [19]: 93.6 fold
Ki [22]: 1.4 nM
Kcat (s^-1) of hydrolysis of APPI by mesotrypsin (HPLC time course) [23]: 0.00371 s⁻¹

B7: APPI-I18F (SEQ ID NO: 19), soluble (designed binder)
chain: B1 chain with I16F
notes: as for B2
ΔΔGa, edge WT to I18F [26]: -2.26 kcal/mol
Ki (fold) [19]: 39.8 fold
Ki [6]: 3.29 nM
Kcat (s^-1) of hydrolysis of APPI by mesotrypsin (HPLC time course) [23]: 0.0104 s⁻¹

B8: APPI-M17G (SEQ ID NO: 18), soluble (designed binder)
chain: B1 chain with M15G
notes: as for B2
ΔΔGa, edge WT to M17G [26]: -2.26 kcal/mol
Ki (fold) [27]: 39.8 fold
Ki [6]: 3.29 nM
Ki [22]: 3.69 nM
Kcat (s^-1) of hydrolysis of APPI by mesotrypsin (HPLC time course) [23]: 0.0156 s⁻¹
Ki (fold) [28]: 34.8 fold

B9: APPIT11C/M17G/I18F/F34C (SEQ ID NO: 11), soluble (designed binder)
chain: B1 chain with T9C, M15G, I16F, F32C
notes: as for B2
Kcat (1/s), proteolytic resistance [9]: 0.00521 s⁻¹
Ki [10]: 149 nM

B10: APPI-I18F/F34V (SEQ ID NO: 20), soluble (designed binder)
chain: B1 chain with I16F, F32V
notes: as for B2
ΔΔGa, edge F34V to I18F/F34V [26]: -1.67 kcal/mol
ΔΔGa, edge I18F to I18F/F34V [26]: 0 kcal/mol
Ki (fold) [19]: 39.8 fold
Ki [22]: 3.3 nM
Kcat (s^-1) of hydrolysis of APPI by mesotrypsin (HPLC time course) [23]: 0.00535 s⁻¹

B11: APPIM17G/I18F/K29L/F34V (SEQ ID NO: 10), soluble (designed binder)
chain: B1 chain with M15G, I16F, K27L, F32V
notes: as for B2
Kcat (1/s), proteolytic resistance [9]: 0.000535 s⁻¹
Ki [10]: 0.0891 nM
fold improvement in affinity relative to APPI-WT [11]: ~1000 fold

B12: APPI-F34V (SEQ ID NO: 23), soluble (designed binder)
chain: B1 chain with F32V
notes: Variants were subcloned between EcoRI and AvrII of the APPI-WT pPIC9K template; not shown: AvrII site residues and C-terminal HIS6 tag
ΔΔGa, edge WT to F34V [26]: -0.59 kcal/mol
Ki (fold) [19]: 2.6 fold
Ki [6]: 50.1 nM
Kcat (s^-1) of hydrolysis of APPI by mesotrypsin (HPLC time course) [23]: 0.0161 s⁻¹

B13: APPIM17L,I18F,S19F,F34V (SEQ ID NO: 13), soluble (designed binder)
chain: B1 chain with M15L, I16F, S17F, F32V
notes: also called APPI 3M G17L,S19F; not shown: His tag at the C-terminal
Kd (human Kallikrein-6 [2]): 0.351 nM
Ki [29]: 5.38 nM
fold improvement in binding compared to APPI WT (human Kallikrein-6 [30]): 22.5 fold
